For one protein, Km and kcat results are on record in doi:10.1101/2022.07.20.500776v2.

Substrate in the data set: O=[N+]([O-])c1ccc(OP(=O)(O)O)cc1
In words: purified protein. The note with it: pH 8.0, 100 mM Tris-HCl, 1 mM MgCl2, 10 °C, no added NaCl.

B1: Vibrio alkaline phosphatase (VAP) (Vibrio sp. G15-21) (protein)
chain: AEIKNVILMIGDGMGPQQVGLLETYANQAPNSIYKGNKTAIYQLAQEGVIGSSLTHPEDAIVVDSACSATMLATGIYSSSEVIGIDSQGNHVETVLEKAKKAGKATGLVSDTRLTHATPASFAAHQPHRSLENQIASDMLATGADVMLSGGLRHWIPKSTNDKGETYKQLEKLTQGDVYLKSKRKDDRNLLTEAEKDGYQLAFNRNMLDDAKGDKLLGLFAYSGMDDGIAYSNKKKSGERTQPSLKEMTQKALNILSKDEDGFFLMVEGGQIDWAGHSNDAGTMLHELLKFDEAIQTVYEWAKDREDTIVIVTADHETGSFGFSYSSNDLPKPQKRSGEAFADRDYAPNFNFGAFDILDGLYNQKQSYYGMISEFQKLDKSLQTPEKLAEIVNKNSEFPITAEQAKNVLASKPNPYRLAQHKYLSAEEVPAINDFDAFFPYNDRGNLLAREQATGQNIVWGTGTHTHTPVNVFAWGPAEKILPVSKIMHHSELGEYIKQQVN
The Km is the concentration of substrate that gives half-maximal velocity. As usually defined, the kcat is the number of substrate molecules converted per active site and unit of time at saturation. Regarding B1, the Km was found to be 7.6 ± 1.8 µM and the kcat came to 231 ± 15 s⁻¹.
